PMC5192385

Molecular target: depolymerase enzyme encoded by Klebsiella phage KP36 (depoKP36) (Klebsiella phage KP36)
Experiment: SEC-MALS; 2 mg of purified, non-aggregated protein on an S200 10/30 column in 200 mM NaCl, 25 mM HEPES, 5% glycerol, pH 7.8; flow 0.5 mL/min

depolymerase enzyme encoded by Klebsiella phage KP36 (depoKP36), sequence (K9L8K6 whole entry): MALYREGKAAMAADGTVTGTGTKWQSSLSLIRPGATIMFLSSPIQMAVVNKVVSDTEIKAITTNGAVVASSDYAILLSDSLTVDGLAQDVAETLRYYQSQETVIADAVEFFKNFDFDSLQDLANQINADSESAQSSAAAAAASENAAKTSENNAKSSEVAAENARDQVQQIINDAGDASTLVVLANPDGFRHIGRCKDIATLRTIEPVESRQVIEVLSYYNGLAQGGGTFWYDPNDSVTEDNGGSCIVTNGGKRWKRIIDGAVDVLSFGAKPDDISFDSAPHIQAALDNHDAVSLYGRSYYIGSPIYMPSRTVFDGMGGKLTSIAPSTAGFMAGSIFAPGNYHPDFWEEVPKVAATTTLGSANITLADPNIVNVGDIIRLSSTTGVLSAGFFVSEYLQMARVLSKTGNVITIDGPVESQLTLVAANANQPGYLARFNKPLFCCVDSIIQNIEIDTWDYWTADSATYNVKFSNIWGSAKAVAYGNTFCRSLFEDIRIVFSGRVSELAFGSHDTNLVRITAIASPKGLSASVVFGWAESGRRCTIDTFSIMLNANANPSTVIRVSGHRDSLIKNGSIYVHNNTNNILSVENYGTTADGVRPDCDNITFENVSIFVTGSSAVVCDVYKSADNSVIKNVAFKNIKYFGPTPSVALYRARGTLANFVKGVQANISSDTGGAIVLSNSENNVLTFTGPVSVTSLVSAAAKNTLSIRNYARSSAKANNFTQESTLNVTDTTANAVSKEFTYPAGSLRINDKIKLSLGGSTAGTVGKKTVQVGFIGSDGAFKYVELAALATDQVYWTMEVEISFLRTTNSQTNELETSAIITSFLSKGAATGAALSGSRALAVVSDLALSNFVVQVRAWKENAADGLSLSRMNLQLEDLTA

Substance: depolymerase enzyme encoded by Klebsiella phage KP36 (depoKP36)
- stoichiometry N: 3
